From PMC11969024 (2025) come the findings set out here.

B1: peptide HD2 (from tick evasin EVA4) / CCL17 (biotinylated, synthetic) (parent complex)
chain 1: EEDDYTAYAPLTCYFT
chain 2: ARGTNVGRECCLEYFKGAIPLRKLKTWYQTSEDCSRDAIVFVTVQGRAICSDPNNKRVKNAVKYLQSLERS
B2: peptide HD2 (from tick evasin EVA4) / CCL8 (biotinylated, synthetic) (parent complex)
chain 1: EEDDYTAYAPLTCYFT
chain 2: QPDSVSIPITCCFNVINRKIPIQRLESYTRITNIQCPKEAVIFKTKRGKEVCADPKERWVRDSMKHLDQIFQNLKP

Variants of B1 are the subject of the first assay.
In the case of chain 1 E1D, the enrichment is 2.62 log2 (difference from the parental peptide).

With chain 1 E2K, the enrichment was -0.857 log2 (difference from the parental peptide).

Turning to chain 1 T6P, the enrichment is -4.51 log2 (difference from the parental peptide).

chain 1 F15R: the enrichment is 0.0833 log2 (difference from the parental peptide).

The variants in the next assay derive from B2.
As for chain 1 A7I, the enrichment was 0.0548 log2 (difference from the parental peptide).

As for chain 1 A7S, the enrichment was 0.947 log2 (difference from the parental peptide).

As to chain 1 A7K, the enrichment was 0.582 log2 (difference from the parental peptide).

On to chain 1 A7E, for which the enrichment was 2.43 log2 (difference from the parental peptide).

On to chain 1 A7D, for which the enrichment was 2.55 log2 (difference from the parental peptide).

Regarding chain 1 T16K, the enrichment was 1.41 log2 (difference from the parental peptide).

As for chain 1 T16N, the enrichment is 0.543 log2 (difference from the parental peptide).

Consider chain 1 T16C, for which the enrichment was -2.39 log2 (difference from the parental peptide).

As for chain 1 E1Y, the enrichment was -0.879 log2 (difference from the parental peptide).

With chain 1 E1Q, the enrichment was -0.418 log2 (difference from the parental peptide).

Turning to chain 1 E1A, the enrichment is -0.674 log2 (difference from the parental peptide).

Regarding chain 1 E1R, the enrichment was -2.91 log2 (difference from the parental peptide).

Turning to chain 1 Y14K, the enrichment is -1.21 log2 (difference from the parental peptide).

Consider chain 1 Y14V, for which the enrichment is 1.05 log2 (difference from the parental peptide).

chain 1 Y14E: the enrichment is -0.645 log2 (difference from the parental peptide).

On to chain 1 Y14R, for which the enrichment was -0.632 log2 (difference from the parental peptide).

Consider chain 1 E2P, for which the enrichment is -2.32 log2 (difference from the parental peptide).

Turning to chain 1 E2T, the enrichment is -1.89 log2 (difference from the parental peptide).

For the variant chain 1 E2S, the enrichment is -1.97 log2 (difference from the parental peptide).

As for chain 1 E2A, the enrichment is -1.44 log2 (difference from the parental peptide).

chain 1 F15W: the enrichment was 0.273 log2 (difference from the parental peptide).

Consider chain 1 F15N, for which the enrichment is 1.4 log2 (difference from the parental peptide).

For the variant chain 1 F15Y, the enrichment is 1.8 log2 (difference from the parental peptide).

With chain 1 F15P, the enrichment is 2.45 log2 (difference from the parental peptide).

Regarding chain 1 F15V, the enrichment is 2.21 log2 (difference from the parental peptide).

For chain 1 C13W, the enrichment was -1.28 log2 (difference from the parental peptide).

For the variant chain 1 C13K, the enrichment is -4.94 log2 (difference from the parental peptide).

Regarding chain 1 C13S, the enrichment was -1.77 log2 (difference from the parental peptide).

Take chain 1 C13H: the enrichment is -2.17 log2 (difference from the parental peptide).

As to chain 1 C13T, the enrichment was -0.813 log2 (difference from the parental peptide).

On to chain 1 C13N, for which the enrichment is -3.72 log2 (difference from the parental peptide).

Take chain 1 P10D: the enrichment was -7.93 log2 (difference from the parental peptide).

In the case of chain 1 P10L, the enrichment is -8.02 log2 (difference from the parental peptide).

Turning to chain 1 P10C, the enrichment is -8.24 log2 (difference from the parental peptide).

In the case of chain 1 P10R, the enrichment is -7.6 log2 (difference from the parental peptide).

chain 1 T6Q: the enrichment was 1.13 log2 (difference from the parental peptide).

With chain 1 T6V, the enrichment was -3.12 log2 (difference from the parental peptide).

As for chain 1 T6N, the enrichment is 0.795 log2 (difference from the parental peptide).

As for chain 1 T6I, the enrichment was -5.53 log2 (difference from the parental peptide).

For the variant chain 1 T6C, the enrichment was -9.06 log2 (difference from the parental peptide).

Consider chain 1 A9W, for which the enrichment is -5.37 log2 (difference from the parental peptide).

chain 1 A9N: the enrichment was -3.86 log2 (difference from the parental peptide).

Take chain 1 A9R: the enrichment was -0.86 log2 (difference from the parental peptide).

For the variant chain 1 D4S, the enrichment is -2.5 log2 (difference from the parental peptide).

On to chain 1 D4P, for which the enrichment was -4.27 log2 (difference from the parental peptide).

As for chain 1 D4G, the enrichment is -2.42 log2 (difference from the parental peptide).

For the variant chain 1 D4N, the enrichment is -2.35 log2 (difference from the parental peptide).

For the variant chain 1 D4K, the enrichment is -6.39 log2 (difference from the parental peptide).

With chain 1 D4R, the enrichment was -6.61 log2 (difference from the parental peptide).

Turning to chain 1 D4E, the enrichment is -0.292 log2 (difference from the parental peptide).

Turning to chain 1 Y5C, the enrichment is -7.1 log2 (difference from the parental peptide).

With chain 1 Y5S, the enrichment was -5.16 log2 (difference from the parental peptide).

Consider chain 1 Y5H, for which the enrichment is -5.84 log2 (difference from the parental peptide).

For chain 1 Y5L, the enrichment is -0.265 log2 (difference from the parental peptide).

Consider chain 1 Y5M, for which the enrichment was -0.636 log2 (difference from the parental peptide).

With chain 1 Y5G, the enrichment was -5.04 log2 (difference from the parental peptide).

In the case of chain 1 D3W, the enrichment is -2.86 log2 (difference from the parental peptide).

Take chain 1 D3F: the enrichment was -2.94 log2 (difference from the parental peptide).

In the case of chain 1 D3V, the enrichment is -3.08 log2 (difference from the parental peptide).

Take chain 1 L11E: the enrichment is 0.712 log2 (difference from the parental peptide).

Turning to chain 1 L11F, the enrichment is -0.0302 log2 (difference from the parental peptide).

chain 1 L11W: the enrichment was -0.601 log2 (difference from the parental peptide).

As for chain 1 L11N, the enrichment is 0.274 log2 (difference from the parental peptide).

For chain 1 L11H, the enrichment is 1.86 log2 (difference from the parental peptide).

With chain 1 Y8W, the enrichment is 0.61 log2 (difference from the parental peptide).

Turning to chain 1 Y8D, the enrichment was -7.06 log2 (difference from the parental peptide).

For the variant chain 1 Y8A, the enrichment is -1.36 log2 (difference from the parental peptide).

Turning to chain 1 T12A, the enrichment is -0.122 log2 (difference from the parental peptide).

Regarding chain 1 T12D, the enrichment is -1.11 log2 (difference from the parental peptide).

Turning to chain 1 T12P, the enrichment was -0.165 log2 (difference from the parental peptide).

Consider chain 1 T12H, for which the enrichment is -0.0146 log2 (difference from the parental peptide).
